Reference: patent publication US20200400662A1
Values joined by “and” are separate entries in the source; they are usually repeats but may differ in a detail not shown here. Equal values may be shown once. One block for each binder: values may come before it.

Target: Drug A
Test: cell-based or functional assay

hemagglutination of Drug A-coated erythrocytes with anti-IgG; molar excess of Fab that prevented it (fold molar excess relative to Drug A): 200 and 400
B1: Fab fragment of Antibody C (Fab, V domains shown)
VH: DVQLVESGGGVVRPGESLRLSCEASGFTFSSNAMSWVRQAPGKGLEWVAGISSGSDTYYGDSVKGRLTISRDNSKNILYLQMNSLTAEDTAVYYCARETWNHLFDYWGQGTLVTVSS
VL: SYELTQPPSVSVSPGQTARITCSGGSYSSYYYAWYQQKPGQAPVTLIYSDDKRPSNIPERFSGSSSGTTVTLTISGVQAEDEADYYCGGYDQSSYTNPFGGGTKLTVL

hemagglutination of Drug A-coated erythrocytes with anti-IgG; molar excess of Fab that prevented it (fold molar excess relative to Drug A): 2500
B2: Fab fragment of Antibody A (Fab, V domains shown)
VH: DVQLVESGGGVVRPGESLRLSCAASGFSFSSYAMNWVRQAPGEGLEWVSRINSGGGGTDYAESVKGRFTISRDNSENTLYLQMNSLRAEDTAVYYCAKQYDWNSFFDYWGLGALVTVSS
VL: ETVLTQSPATLSVSPGERATLSCRASQTVGSKLAWHQQKPGQAPRLLIYDATNRATGISDRFSGSGSGTDFTLTISSLQTEDSAVYYCQQYYYWPPYRFGGGTKVEIK
